Experimental data as given in patent US20210246209A1 (SHANGHAI JUNSHI BIOSCIENCES, published 2021).
Where two headings read alike, the source gives them in different places.

Assays:
[1] = target: T1, human BTLA expressed on cells (human, UniProt Q7Z6A9 31-289); assay: cell-based or functional assay
[2] = target: T1, human BTLA expressed on cells; assay: FACS on 293F cells expressing hBTLA
Procedure: The humanized anti-BTLA antibodies were determined for their binding ability to hBTLA expressed on cells using cell-based flow cytometry (FACS). […] Then the cells were mixed with 50 μL of antibody diluent at different concentrations (initial concentration: 10 μg/mL, 3-fold titration), and incubated at room temperature for 30 minutes. After being washed with an FACS buffer twice, the cells were added with 100 μL of goat anti-human IgG-PE antibody, incubated for 30 minutes away from light, and assayed by FACS after two washes with an FACS buffer. The washed cells were resuspended in 4° C. buffer containing propidium iodide (PI) and 0.02% sodium azide that prevents receptor internalization and analyzed by flow cytometry. Viable cells were gated on the basis of PI positive cells being excluded from the FSC/SSC gate and their geometric mean fluorescence intensity was measured. The data were analyzed using a sigmoidal dose-response model within Prism™ software.
The humanized antibodies hu17, hu18, and hu19 can effectively bind to hBTLA on 293 cells.

[3] = target: T2, hBTLA (human BTLA protein coated on plates or coupled to a chip) (human, UniProt Q7Z6A9 31-157, limits assumed); assay: ELISA, hBTLA coated at 0.5 µg/mL, anti-human IgG4-HRP detection
T2 sequence (looked up): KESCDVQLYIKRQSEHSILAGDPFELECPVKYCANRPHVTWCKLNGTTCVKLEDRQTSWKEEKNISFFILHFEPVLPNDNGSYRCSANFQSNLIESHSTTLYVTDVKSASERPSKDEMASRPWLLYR
Procedure: (§1) The binding specificity of the humanized antibodies to hBTLA was determined by conventional ELISA method. A 96-well microplate was coated with 0.5 μg/mL hBTLA and incubated at 37° C. for 60 minutes. The solution in wells was then discarded, and the wells were washed 3 times with washing buffer, and blocked for 60 minutes with PBS containing 2% BSA. After being washed 3 times with washing buffer, the wells were added with gradiently-diluted antibodies, incubated at 37° C. for 60 minutes, and washed 3 times with washing buffer before adding a HRP-labeled mouse anti-human IgG4 secondary antibody diluted at 1:10000. The mixture was incubated at 37° C. for 1 hour, washed three times with washing buffer, and added with 100 μL of TMB substrate solution for color development at room temperature for 30 minutes, then the reaction was stopped with 100 μL of 2M hydrochloric acid solution and the absorbance was read at 450 nm.
The humanized antibodies hu17, hu18, and hu19 can specifically bind to hBTLA.

[4] = target: T3, recombinant protein of human BTLA extracellular domain (hBTLA-ECD-FC) (human, UniProt Q7Z6A9 31-157, biotin-labeled in the FACS blocking assays (site not stated)); assay: FACS, blocking of biotin-labeled hBTLA binding to hHVEM-293F cells
T3 construct: extracellular domain; also called BTLA-Fc; biotin-labeled hBTLA; not shown: Fc of the self-constructed HX1-FC expression plasmid
T3 sequence (looked up): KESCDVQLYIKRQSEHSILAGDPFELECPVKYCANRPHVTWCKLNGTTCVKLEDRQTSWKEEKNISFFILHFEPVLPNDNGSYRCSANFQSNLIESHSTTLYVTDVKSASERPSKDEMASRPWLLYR
Procedure: (§2) Then the cells were mixed with previously biotin-labeled hBTLA (1 μg/mL) protein, incubated at 4° C. for 15 minutes, followed by mixing with 50 μL of humanized antibody diluent (initial concentration: 5 μg/mL, 3-fold titration) at different concentrations, and incubating at room temperature for 30 minutes. After being washed with an FACS buffer twice, the cells were added with 100 μL of goat anti-human IgG-PE antibody, incubated for 30 minutes away from light, and assayed by FACS after two washes with an FACS buffer. The washed cells were resuspended in 4° C. buffer containing propidium iodide (PI) and 0.02% sodium azide that prevents receptor internalization and analyzed by flow cytometry. Viable cells were gated on the basis of PI positive cells being excluded from the FSC/SSC gate and their geometric mean fluorescence intensity was measured. The data were analyzed using a sigmoidal dose-response model within Prism™ software.
The […] antibodies hu17, hu18, and hu19 can effectively block the binding of human BTLA to HVEM on the cell surface.

[5] = target: recombinant human FcRn (human) (UniProt P55899); assay: SPR, Biacore T200, Fc receptor captured by anti-His antibody, antibody injected
Chain of recombinant human FcRn (human) (P55899 24-297 limits assumed, form in doubt, chain 1 of 2): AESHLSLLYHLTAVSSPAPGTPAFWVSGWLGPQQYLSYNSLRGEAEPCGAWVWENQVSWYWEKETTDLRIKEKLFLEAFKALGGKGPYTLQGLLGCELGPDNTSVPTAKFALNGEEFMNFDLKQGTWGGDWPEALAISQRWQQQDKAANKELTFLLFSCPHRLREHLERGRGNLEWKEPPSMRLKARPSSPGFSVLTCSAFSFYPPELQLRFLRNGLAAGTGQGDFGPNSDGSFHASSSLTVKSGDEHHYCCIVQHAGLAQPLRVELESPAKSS
Chain of recombinant human FcRn (human) (chain, as listed by the source limits assumed, form in doubt, chain 2 of 2): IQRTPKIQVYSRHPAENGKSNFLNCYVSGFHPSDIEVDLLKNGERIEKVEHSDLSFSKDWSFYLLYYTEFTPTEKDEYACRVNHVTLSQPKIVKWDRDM

[6] = target: recombinant human FcγRI (CD64) (human) (UniProt P12314); assay: as above
Chain of recombinant human FcγRI (CD64) (human) (P12314 16-288 limits assumed): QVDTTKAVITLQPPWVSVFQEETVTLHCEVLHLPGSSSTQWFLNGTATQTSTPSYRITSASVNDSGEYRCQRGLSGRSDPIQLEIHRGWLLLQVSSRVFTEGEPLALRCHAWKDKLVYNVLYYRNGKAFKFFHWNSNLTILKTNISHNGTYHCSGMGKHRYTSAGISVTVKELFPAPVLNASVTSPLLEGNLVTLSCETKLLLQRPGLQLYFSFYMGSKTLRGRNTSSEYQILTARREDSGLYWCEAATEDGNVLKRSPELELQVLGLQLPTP

[7] = target: recombinant human FcγRIIIA (CD16a) V176 (human) (UniProt P08637); assay: as above
Chain of recombinant human FcγRIIIA (CD16a) V176 (human) (P08637 17-208 F176V limits assumed): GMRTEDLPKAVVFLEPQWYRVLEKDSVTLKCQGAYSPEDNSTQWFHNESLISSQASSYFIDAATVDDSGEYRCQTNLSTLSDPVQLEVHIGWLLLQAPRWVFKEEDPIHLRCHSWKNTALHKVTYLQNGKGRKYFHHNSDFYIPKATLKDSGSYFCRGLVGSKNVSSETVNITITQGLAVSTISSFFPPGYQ

[8] = target: T3, recombinant protein of human BTLA …; assay: SPR, Biacore T200, BTLA-Fc amine-coupled to chip, antibody as analyte, 1:1 fit
Procedure: The assay was carried out using a Biacore T200 instrument (GE Healthcare). Series S CMS chip was loaded on the instrument and the system buffer used was HBS-EP+(10 mM HEPES, pH 7.4, 150 mM NaCl, 3 mM EDTA, 0.05% surfactant P20). The BTLA-Fc antigens were coupled in a chip detection channel: injecting a mixed solution of 400 mM EDC and 100 mM NHS at 10 μL/min for 420 s to activate the surface of the chip, diluting the BTLA-Fc antigens in a 10 mM sodium acetate/acetic acid (pH 5.5) buffer to a final concentration of 20 μg/mL and injecting at 10 μL/min for coupling, and injecting a 1M ethanolamine-hydrochloric acid solution (pH 8.5) at 10 μL/min for 420 s for blocking.
Antibodies were diluted in a 2-fold gradient with Biacore system buffer for a total of 6 concentration points. Concentration gradients were 24 nM, 12 nM, 6 nM, 3 nM, 1.5 nM and 0.75 nM, with 24 nM being a replicate. Data were analyzed using Biacore T200 Evaluation Software (version no. 3.0, GE Healthcare). Data were fitted using a model of 1:1 Binding. The kinetic constants of the binding of the antibodies to the antigens, namely, the association rate constant ka (1/Ms), dissociation rate constant kd (1/s) and the affinity constant kd (M), were obtained by fitting, and the results are shown in Table 8.

[9] = target: recombinant human FcγRIIIA (CD16a) V176 (human) (UniProt P08637); assay: SPR, Biacore T200, Fc receptor captured by anti-His antibody, antibody injected; IgG4 subtype (hu18), kinetics N/A
[10] = target: T2, hBTLA (human BTLA protein coated on …); assay: ELISA, hBTLA coated at 0.5 µg/mL, anti-human IgG4-HRP detection; remark: listed apart in the source
Procedure: as §1, with “ability” for “specificity”, “chimeric” for “humanized”, “assayed” for “determined”, “ELISA.” for “conventional ELISA method.”
The chimeric antibodies ch7, ch12, ch17, ch22 and ch27 can specifically bind to hBTLA.

[11] = target: T3, recombinant protein of human BTLA …; assay: FACS, blocking of biotin-labeled hBTLA binding to hHVEM-293F cells; remark: listed apart in the source
Procedure: as §2, with “chimeric” for “humanized”, “intensity (MFI)” for “intensity”, “PrismTM” for “Prism™”
The chimeric antibodies ch12, ch17, ch22 and ch27 can effectively block the binding of human BTLA to HVEM on the cell surface.

B1: humanized antibody hu18 (antibody, IgG4, V domains shown)
VH: QVQLVQSGAEVKKPGASVKLSCKASGYNFKHTYAHWVRQAPGQGLEWIGRIDPANGNTKYDPKFQGRATMTADTASNTAYLELSSLRSEDTAVYYCVADHYGSSLLDYWGQGTLVTVSS
VL: DVVMTQTPLSLSVTPGQPASISCKSSQSLLDSDGKTYLNWFQQRPGQSPRRLIYLVSKLDSGVPDRFSGSGSGTDFTLKISRVEAEDVGVYYCWQGTYFPYTFGQGTKLEIK
notes: also called JS004; recombinant human anti-BTLA antibody
EC50 (luciferase reporter, T cell activation) [1]: 277 ng/mL
EC50 [2]: 0.0893 µg/mL
EC50 [3]: 5.4 ng/mL
IC50 [4]: 0.172 µg/mL
Kd [5]: 138 nM
koff [5]: 0.0708 s⁻¹
kon [5]: 512000 M⁻¹ s⁻¹
Kd [6]: 18.4 nM
koff [6]: 0.00387 s⁻¹
kon [6]: 210000 M⁻¹ s⁻¹
fold weaker than the control antibody of the IgG1 subtype (hu18-IgG1) [7]: 400 fold
Kd [8]: 0.136 nM
koff [8]: 8.67e-05 s⁻¹
kon [8]: 639000 M⁻¹ s⁻¹
Kd [9]: 60.2 µM

B2: humanized antibody hu19 (antibody, V domains shown)
VH: QVQLVQSGAEVKKPGASVKLSCKASGYNFKHTYAHWVRQAPGQGLEWIGRIDPANGNTKYDPKFQGRATMTADTASNTAYLELSSLRSEDTAVYYCVADHYGSSLLDYWGQGTLVTVSS
VL: DIVMTQTPLSLSVTPGQPASISCKSSQSLLDSDGKTYLNWFQQRPGQSPRRLMHLVSKLDSGVPDRFSGSGSGTDFTLKISRVEAEDVGVYYCWQGTYFPYTFGQGTKLEIK
notes: It was detected with an anti-human IgG4 secondary antibody
EC50 (luciferase reporter, T cell activation) [1]: 290 ng/mL
EC50 [2]: 0.0951 µg/mL
EC50 [3]: 6.6 ng/mL
IC50 [4]: 0.162 µg/mL

B3: chimeric antibody ch12 (antibody, human IgG4, V domains shown)
VH: EVQLQQSGADLVKPGASVKLSCTASGFNFKHTYAHWVKQRPEQGLEWIGRIDPANGNTKYDPKFQGKATMTADTASNAAFLQLSSLTSEDTAVYYCVADHYGSSLLDYWGQGTSLTVSS
VL: EVVMTQTPLTLSVTIGQSASISCKSSQSLLDSDGKTYLNWFLQRPGQSPKRLMHLVSKLDSGVPDRFTGSGSGTDFTLKISGVEAEDLGVYYCWQGTYFPYTFGGGTKLETK
notes: T0010 gives only CDR numbers (HCDR 13-15, LCDR 10-12)
EC50 (luciferase reporter, T cell activation) [1]: 139 ng/mL
EC50 [2]: 0.0881 µg/mL
EC50 [10]: 9.4 ng/mL
IC50 [11]: 0.0772 µg/mL
IC50 [4]: 0.157 µg/mL

B4: chimeric antibody ch7 (antibody, human IgG4, V domains shown)
VH: EVQLQQSGAELVKPGASVKLSCTVSGFNIKDSYIHWVKQRPEQGLEWIGRIDPANGNTKYDPKFRGKATITADASSNTAALQVSSLTSEDTAVYFCVGDHYGSSLFDYWGHGTTLTVSS
VL: EVVMTQTPLTLSVTIGQSASISCKSSQSLLDSDGKTYLNWFLQRPGQSPKRLMHLVSKLDSGVPDRFTGSGSGTDFTLKISGVEAEDLGVYYCWQGTYFPYTFGGGTKLETK
notes: T0010 gives only CDR numbers (HCDR 4-6, LCDR 10-12)
EC50 [10]: 6.6 ng/mL

B5: chimeric antibody ch17 (antibody, human IgG4, V domains shown)
VH: EVQLQQSGADLVKPGASVKLSCTASGFNIKDTYVHWVKQRPEQGLEWIGRIDPANGHTKFDPKFQGKATITADTSSNTANLQISSLTSEDTAVYYCVSDYYGSSLLDYWGQGTTLTVSS
VL: EVVMTQTPLTLSVTIGQSASISCKSSQSLLDSDGKTYLNWFLQRPGQSPKRLMHLVSKLDSGVPDRFTGSGSGTDFTLKISGVEAEDLGVYYCWQGTYFPYTFGGGTKLETK
notes: T0010 gives only CDR numbers (HCDR 19-21, LCDR 10-12)
EC50 [10]: 29.8 ng/mL
IC50 [11]: 0.0761 µg/mL

B6: chimeric antibody ch22 (antibody, human IgG4, V domains shown)
VH: EVQLQQSGAELVRPGASVKLSCTVSGFNIKDTYVHWVKQRPEQGLEWIGRIDPANGHTKYDPKLQGTATITADTSSNTAYLQLSSLTSEDTAVYYCATDYYGSSLLDYWGQGTTLTVSS
VL: EVVMTQTPLTLSVTIGQSASISCKSSQSLLDSDGKTYLNWFLQRPGQSPKRLMHLVSKLDSGVPDRFTGSGSGTDFTLKISGVEAEDLGVYYCWQGTYFPYTFGGGTKLETK
notes: T0010 gives only CDR numbers (HCDR 25-27, LCDR 10-12)
EC50 [10]: 37.3 ng/mL
IC50 [11]: 0.0757 µg/mL

B7: chimeric antibody ch27 (antibody, human IgG4, V domains shown)
VH: EVHLQQSGTELMKPGASVKLSCTASGLNIRDTYMHWVKQRPEQGLEWIGRIDPANGNTKFDPKFQGKATLTSDTSSNTAYLHFSSLTSEDAAVYYCVSDHYGSSLLDYWGQGTSLTVSS
VL: EVVMTQTPLTLSVTIGQSASISCKSSQSLLDSDGKTYLNWFLQRPGQSPKRLMHLVSKLDSGVPDRFTGSGSGTDFTLKISGVEAEDLGVYYCWQGTYFPYTFGGGTKLETK
notes: T0010 gives only CDR numbers (HCDR 28-30, LCDR 10-12)
EC50 [10]: 5.2 ng/mL
IC50 [11]: 0.0695 µg/mL
